Data as given in IntAct's records for PubMed 35512704.

B1: Mothers against decapentaplegic homolog 4 (Homo sapiens), Q13485 (parent)
chain: MDNMSITNTPTSNDACLSIVHSLMCHRQGGESETFAKRAIESLVKKLKEKKDELDSLITAITTNGAHPSKCVTIQRTLDGRLQVAGRKGFPHVIYARLWRWPDLHKNELKHVKYCQYAFDLKCDSVCVNPYHYERVVSPGIDLSGLTLQSNAPSSMMVKDEYVHDFEGQPSLSTEGHSIQTIQHPPSNRASTETYSTPALLAPSESNATSTANFPNIPVASTSQPASILGGSHSEGLLQIASGPQPGQQQNGFTGQPATYHHNSTTTWTGSRTAPYTPNLPHHQNGHLQHHPPMPPHPGHYWPVHNELAFQPPISNHPAPEYWCSIAYFEMDVQVGETFKVPSSCPIVTVDGYVDPSGGDRFCLGQLSNVHRTEAIERARLHIGKGVQLECKGEGDVWVRCLSDHAVFVQSYYLDREAGRAPGDAVHKIYPSAYIKVFDLRQCHRQMQQQAATAQAAAAAQAAAVAGNIPGPGSVGGIAPAISLSAAAGIGVDDLRRLCILRMSFVKGWGPDYPRQSIKETPCWIEIHLHRALQLLDEVLHTMPIADPQPLD

Variants of: B1
Conditions: with ros1_human ROS1, P08922

Variant	effect of a mutation on the interaction
R361C	with no effect

Variants of: B1
Conditions: with ks6b1_human RPS6KB1, P23443
ks6b1_human RPS6KB1, P23443, sequence (P23443 whole entry, looked up): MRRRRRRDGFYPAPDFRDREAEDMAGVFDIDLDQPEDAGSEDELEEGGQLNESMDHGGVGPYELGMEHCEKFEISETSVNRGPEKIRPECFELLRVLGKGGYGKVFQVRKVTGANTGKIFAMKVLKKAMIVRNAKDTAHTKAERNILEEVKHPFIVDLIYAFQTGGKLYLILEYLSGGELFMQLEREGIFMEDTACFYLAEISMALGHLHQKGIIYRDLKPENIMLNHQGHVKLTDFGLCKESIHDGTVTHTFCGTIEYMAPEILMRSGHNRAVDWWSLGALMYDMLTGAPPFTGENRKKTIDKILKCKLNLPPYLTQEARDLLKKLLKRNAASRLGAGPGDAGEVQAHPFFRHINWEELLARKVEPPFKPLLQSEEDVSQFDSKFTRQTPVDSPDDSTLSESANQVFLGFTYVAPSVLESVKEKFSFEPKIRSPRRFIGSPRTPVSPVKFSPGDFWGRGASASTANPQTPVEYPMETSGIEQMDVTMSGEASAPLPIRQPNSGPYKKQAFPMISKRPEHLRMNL

Variant	effect of a mutation on the interaction
R361C	with no effect

Variants of: B1
Conditions: with runx1_human RUNX1, Q01196

Variant	effect of a mutation on the interaction
R361C	with no effect

Variants of: B1
Conditions: with ruvb1_human RUVBL1, Q9Y265

Variant	effect of a mutation on the interaction
R361C	with no effect

Variants of: B1
Conditions: with rxra_human RXRA

Variant	effect of a mutation on the interaction
R361C	with no effect

Variants of: B1
Conditions: with sdha_human SDHA

Variant	effect of a mutation on the interaction
R361C	with no effect

Variants of: B1
Conditions: with setb1_human SETDB1, Q15047

Variant	effect of a mutation on the interaction
R361C	with no effect

Variants of: B1
Conditions: with sf3b1_human SF3B1, O75533

Variant	effect of a mutation on the interaction
R361C	with no effect

Variants of: B1
Conditions: with skp2_human SKP2, Q13309

Variant	effect of a mutation on the interaction
R361C	with no effect

Variants of: B1
Conditions: with smad1_human SMAD1, Q15797

Variant	effect of a mutation on the interaction
R361C	with no effect

Variants of: B1
Conditions: with smad2_human SMAD2, Q15796
smad2_human SMAD2, Q15796, sequence (Q15796 whole entry): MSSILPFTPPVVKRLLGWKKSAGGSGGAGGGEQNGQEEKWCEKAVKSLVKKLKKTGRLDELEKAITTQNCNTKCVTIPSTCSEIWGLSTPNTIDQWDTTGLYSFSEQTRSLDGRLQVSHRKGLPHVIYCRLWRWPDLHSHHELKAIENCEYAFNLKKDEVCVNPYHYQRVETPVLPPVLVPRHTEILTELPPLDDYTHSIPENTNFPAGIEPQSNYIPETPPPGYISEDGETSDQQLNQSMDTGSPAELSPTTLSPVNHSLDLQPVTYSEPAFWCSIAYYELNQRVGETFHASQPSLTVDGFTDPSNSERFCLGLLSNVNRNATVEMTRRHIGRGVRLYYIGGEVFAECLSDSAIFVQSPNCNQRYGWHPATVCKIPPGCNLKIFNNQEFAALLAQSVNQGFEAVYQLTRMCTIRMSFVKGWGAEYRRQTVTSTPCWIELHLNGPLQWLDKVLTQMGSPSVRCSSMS

Variant	effect of a mutation on the interaction
R361C	with no effect

Variants of: B1
Conditions: with smad3_human SMAD3, P84022
smad3_human SMAD3, P84022, sequence (P84022 whole entry, looked up): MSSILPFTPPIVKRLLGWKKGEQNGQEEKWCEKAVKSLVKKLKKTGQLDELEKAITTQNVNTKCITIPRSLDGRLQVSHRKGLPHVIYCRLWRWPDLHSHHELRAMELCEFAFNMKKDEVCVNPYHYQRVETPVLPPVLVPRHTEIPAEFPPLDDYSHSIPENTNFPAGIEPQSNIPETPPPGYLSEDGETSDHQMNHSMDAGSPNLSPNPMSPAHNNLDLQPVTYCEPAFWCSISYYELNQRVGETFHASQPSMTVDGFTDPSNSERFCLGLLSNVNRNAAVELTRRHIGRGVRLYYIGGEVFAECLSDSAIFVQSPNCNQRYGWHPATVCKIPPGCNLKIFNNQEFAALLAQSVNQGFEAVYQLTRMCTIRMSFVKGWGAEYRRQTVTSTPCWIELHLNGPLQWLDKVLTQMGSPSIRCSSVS

Variant	effect of a mutation on the interaction
R361C	with no effect

Variants of: B1
Conditions: with smca4_human SMARCA4, P51532

Variant	effect of a mutation on the interaction
R361C	with no effect

Variants of: B1
Conditions: with snf5_human SMARCB1, Q12824

Variant	effect of a mutation on the interaction
R361C	with no effect

Variants of: B1
Conditions: with smo_human SMO

Variant	effect of a mutation on the interaction
R361C	with no effect

Variants of: B1
Conditions: with socs1_human SOCS1, O15524
socs1_human SOCS1, O15524, sequence (O15524 whole entry): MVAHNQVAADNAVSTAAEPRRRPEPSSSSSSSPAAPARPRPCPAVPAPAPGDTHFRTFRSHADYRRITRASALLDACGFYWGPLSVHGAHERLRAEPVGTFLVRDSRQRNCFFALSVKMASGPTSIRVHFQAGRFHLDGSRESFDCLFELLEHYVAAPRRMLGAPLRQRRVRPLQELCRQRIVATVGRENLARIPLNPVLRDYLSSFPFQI

Variant	effect of a mutation on the interaction
R361C	with no effect

Variants of: B1
Conditions: with sox10_human SOX10, P56693

Variant	effect of a mutation on the interaction
R361C	with no effect

Variants of: B1
Conditions: with sox2_human SOX2, P48431
sox2_human SOX2, P48431, sequence (P48431 whole entry): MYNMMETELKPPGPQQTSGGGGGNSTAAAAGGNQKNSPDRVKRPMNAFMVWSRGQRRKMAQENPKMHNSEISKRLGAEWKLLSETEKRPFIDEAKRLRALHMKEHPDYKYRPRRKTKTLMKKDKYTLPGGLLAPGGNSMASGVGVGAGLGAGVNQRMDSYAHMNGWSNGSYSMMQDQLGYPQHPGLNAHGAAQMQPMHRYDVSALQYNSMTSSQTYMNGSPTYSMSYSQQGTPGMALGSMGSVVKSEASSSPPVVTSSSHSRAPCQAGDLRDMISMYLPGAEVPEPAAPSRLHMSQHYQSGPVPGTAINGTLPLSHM

Variant	effect of a mutation on the interaction
R361C	with no effect

Variants of: B1
Conditions: with sox3_human SOX3, P41225

Variant	effect of a mutation on the interaction
R361C	with no effect

Variants of: B1
Conditions: with sox4_human SOX4, Q06945

Variant	effect of a mutation on the interaction
R361C	with no effect

Variants of: B1
Conditions: with sox9_human SOX9, P48436
sox9_human SOX9, P48436, sequence (P48436 whole entry): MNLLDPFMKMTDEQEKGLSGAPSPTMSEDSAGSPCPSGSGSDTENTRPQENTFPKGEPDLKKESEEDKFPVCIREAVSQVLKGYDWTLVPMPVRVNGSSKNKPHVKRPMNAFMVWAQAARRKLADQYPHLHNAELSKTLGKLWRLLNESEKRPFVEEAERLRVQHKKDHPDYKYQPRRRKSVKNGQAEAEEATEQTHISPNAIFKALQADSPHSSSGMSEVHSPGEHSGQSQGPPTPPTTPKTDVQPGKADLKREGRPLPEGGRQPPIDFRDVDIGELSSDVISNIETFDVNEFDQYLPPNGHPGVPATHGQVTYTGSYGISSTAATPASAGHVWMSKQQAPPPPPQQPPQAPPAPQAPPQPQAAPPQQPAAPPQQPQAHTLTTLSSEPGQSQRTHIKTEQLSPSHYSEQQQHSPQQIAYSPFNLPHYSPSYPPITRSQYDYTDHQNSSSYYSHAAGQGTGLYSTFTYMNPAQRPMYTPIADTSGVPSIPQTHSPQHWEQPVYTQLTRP

Variant	effect of a mutation on the interaction
R361C	with no effect

Variants of: B1
Conditions: with spop_human SPOP

Variant	effect of a mutation on the interaction
R361C	with no effect

Variants of: B1
Conditions: with src_human SRC

Variant	effect of a mutation on the interaction
R361C	with no effect

Variants of: B1
Conditions: with stat3_human STAT3, P40763

Variant	effect of a mutation on the interaction
R361C	with no effect

Variants of: B1
Conditions: with stk38_human STK38, Q15208
stk38_human STK38, Q15208, sequence (Q15208 whole entry, looked up): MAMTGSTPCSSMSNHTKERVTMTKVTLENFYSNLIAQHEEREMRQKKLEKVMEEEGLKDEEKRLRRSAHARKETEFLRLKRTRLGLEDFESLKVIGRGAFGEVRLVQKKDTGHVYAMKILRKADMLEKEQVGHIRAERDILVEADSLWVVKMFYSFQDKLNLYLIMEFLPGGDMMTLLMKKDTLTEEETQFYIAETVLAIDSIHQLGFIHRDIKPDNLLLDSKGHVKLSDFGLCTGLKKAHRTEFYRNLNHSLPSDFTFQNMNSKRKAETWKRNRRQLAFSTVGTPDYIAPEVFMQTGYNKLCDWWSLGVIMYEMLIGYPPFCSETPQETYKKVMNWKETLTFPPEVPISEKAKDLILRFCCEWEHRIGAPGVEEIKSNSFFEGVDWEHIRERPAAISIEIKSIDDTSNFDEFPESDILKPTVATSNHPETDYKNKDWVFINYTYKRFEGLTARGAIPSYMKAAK

Variant	effect of a mutation on the interaction
R361C	with no effect

Variants of: B1
Conditions: with ksyk_human SYK

Variant	effect of a mutation on the interaction
R361C	with no effect

Variants of: B1
Conditions: with eloc_human ELOC

Variant	effect of a mutation on the interaction
R361C	with no effect

Variants of: B1
Conditions: with tfe2_human TCF3, P15923
tfe2_human TCF3, P15923, sequence (P15923 whole entry): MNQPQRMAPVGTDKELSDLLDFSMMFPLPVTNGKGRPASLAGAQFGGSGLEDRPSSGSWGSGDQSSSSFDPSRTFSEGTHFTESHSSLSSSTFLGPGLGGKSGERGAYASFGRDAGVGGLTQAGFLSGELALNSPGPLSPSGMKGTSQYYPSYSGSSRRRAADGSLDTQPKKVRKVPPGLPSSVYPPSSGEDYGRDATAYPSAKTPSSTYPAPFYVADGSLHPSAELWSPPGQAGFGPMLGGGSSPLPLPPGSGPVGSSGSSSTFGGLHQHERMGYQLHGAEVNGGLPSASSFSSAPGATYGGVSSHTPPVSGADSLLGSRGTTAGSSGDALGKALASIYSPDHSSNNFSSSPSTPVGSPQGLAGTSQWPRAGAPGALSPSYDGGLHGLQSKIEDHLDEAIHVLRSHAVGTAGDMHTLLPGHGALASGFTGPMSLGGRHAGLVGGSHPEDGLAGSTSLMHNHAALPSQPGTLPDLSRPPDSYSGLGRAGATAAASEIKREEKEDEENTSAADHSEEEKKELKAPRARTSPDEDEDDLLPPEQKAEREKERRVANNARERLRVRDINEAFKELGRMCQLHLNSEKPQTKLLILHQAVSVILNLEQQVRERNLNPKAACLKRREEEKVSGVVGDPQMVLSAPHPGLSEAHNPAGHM

Variant	effect of a mutation on the interaction
R361C	with no effect

Variants of: B1
Conditions: with tead1_human TEAD1, P28347

Variant	effect of a mutation on the interaction
R361C	with no effect

Variants of: B1
Conditions: with tead2_human TEAD2, Q15562

Variant	effect of a mutation on the interaction
R361C	with no effect

Variants of: B1
Conditions: with tead3_human TEAD3, Q99594

Variant	effect of a mutation on the interaction
R361C	with no effect

Variants of: B1
Conditions: with tgfr2_human TGFBR2, P37173

Variant	effect of a mutation on the interaction
R361C	with no effect

Variants of: B1
Conditions: with tnr14_human TNFRSF14, Q92956
tnr14_human TNFRSF14, Q92956, sequence (Q92956 whole entry): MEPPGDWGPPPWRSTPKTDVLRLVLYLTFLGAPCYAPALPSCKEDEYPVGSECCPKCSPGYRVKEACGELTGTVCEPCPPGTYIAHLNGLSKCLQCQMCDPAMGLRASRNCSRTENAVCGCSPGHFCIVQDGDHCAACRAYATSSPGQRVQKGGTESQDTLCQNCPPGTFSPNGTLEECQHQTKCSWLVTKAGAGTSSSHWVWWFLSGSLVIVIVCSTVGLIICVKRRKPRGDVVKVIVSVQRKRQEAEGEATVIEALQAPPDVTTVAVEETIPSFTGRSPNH

Variant	effect of a mutation on the interaction
R361C	with no effect

Variants of: B1
Conditions: with tpx2_human TPX2, Q9ULW0

Variant	effect of a mutation on the interaction
R361C	with no effect

Variants of: B1
Conditions: with trrap_human TRRAP

Variant	effect of a mutation on the interaction
R361C	with no effect

Variants of: B1
Conditions: with tsc2_human TSC2, P49815

Variant	effect of a mutation on the interaction
R361C	with no effect

Variants of: B1
Conditions: with tshr_human TSHR

Variant	effect of a mutation on the interaction
R361C	with no effect

Variants of: B1
Conditions: with wt1_human WT1, P19544

Variant	effect of a mutation on the interaction
R361C	with no effect

Variants of: B1
Conditions: with wwtr1_human WWTR1, Q9GZV5
wwtr1_human WWTR1, Q9GZV5, sequence (Q9GZV5 whole entry): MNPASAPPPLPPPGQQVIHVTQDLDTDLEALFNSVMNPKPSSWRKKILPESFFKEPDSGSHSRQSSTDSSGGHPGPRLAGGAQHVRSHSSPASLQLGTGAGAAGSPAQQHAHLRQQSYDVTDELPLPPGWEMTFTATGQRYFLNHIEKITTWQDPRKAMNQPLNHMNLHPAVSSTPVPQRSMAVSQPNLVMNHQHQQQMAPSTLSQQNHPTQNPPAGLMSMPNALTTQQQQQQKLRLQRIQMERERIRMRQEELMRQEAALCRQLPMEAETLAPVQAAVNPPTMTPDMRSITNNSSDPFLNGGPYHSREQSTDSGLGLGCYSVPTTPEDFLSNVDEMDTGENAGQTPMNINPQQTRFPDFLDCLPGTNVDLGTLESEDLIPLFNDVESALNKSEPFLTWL

Variant	effect of a mutation on the interaction
R361C	with no effect

Variants of: B1
Conditions: with xpo1_human XPO1, O14980

Variant	effect of a mutation on the interaction
R361C	with no effect

Variants of: B1
Conditions: with 1433b_human YWHAB

Variant	effect of a mutation on the interaction
R361C	with no effect

Variants of: B1
Conditions: with 1433e_human YWHAE

Variant	effect of a mutation on the interaction
R361C	with no effect

Variants of: B1
Conditions: with 1433z_human YWHAZ

Variant	effect of a mutation on the interaction
R361C	with no effect

Variants of: B1
Conditions: with gata2_human GATA2, P23769
gata2_human GATA2, P23769, sequence (P23769 whole entry): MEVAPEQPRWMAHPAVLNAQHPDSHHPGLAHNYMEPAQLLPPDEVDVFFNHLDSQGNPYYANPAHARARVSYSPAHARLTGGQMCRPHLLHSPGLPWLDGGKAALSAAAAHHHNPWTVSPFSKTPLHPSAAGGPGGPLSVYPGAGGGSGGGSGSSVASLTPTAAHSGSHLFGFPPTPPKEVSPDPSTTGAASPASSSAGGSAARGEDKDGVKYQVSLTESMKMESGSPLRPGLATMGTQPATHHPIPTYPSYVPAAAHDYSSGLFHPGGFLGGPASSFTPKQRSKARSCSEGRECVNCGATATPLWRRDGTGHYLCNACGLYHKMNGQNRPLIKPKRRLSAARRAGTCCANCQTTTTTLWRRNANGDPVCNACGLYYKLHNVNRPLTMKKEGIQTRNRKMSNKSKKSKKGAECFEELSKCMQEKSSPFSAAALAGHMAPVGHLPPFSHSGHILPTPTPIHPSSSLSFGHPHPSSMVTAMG

Variant	effect of a mutation on the interaction
R361C	decreasing interaction strength

Variants of: B1
Conditions: with smad3_human SMAD3, P84022
Remark: another data set of the same source

Variant	effect of a mutation on the interaction
R361C	decreasing interaction strength

Variants of: B1
Conditions: with cdk6_human CDK6, Q00534

Variant	effect of a mutation on the interaction
R361C	decreasing interaction strength
